Measurements from US20210301029A1 (LYVGEN BIOPHARMA, published 2021).

T1: human FcγRIIB (human, UniProt P31994 43-310)
T1 construct: whole, on cells; also called CD32b; FcγR2B
T1 sequence (looked up): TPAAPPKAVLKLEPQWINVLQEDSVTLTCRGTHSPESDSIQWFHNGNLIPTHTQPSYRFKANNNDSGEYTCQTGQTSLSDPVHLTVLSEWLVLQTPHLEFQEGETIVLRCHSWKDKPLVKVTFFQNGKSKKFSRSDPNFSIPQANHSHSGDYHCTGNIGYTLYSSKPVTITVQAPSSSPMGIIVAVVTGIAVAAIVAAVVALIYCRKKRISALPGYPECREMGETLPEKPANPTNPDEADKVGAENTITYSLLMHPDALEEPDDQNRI

B1: 383-huIgG1m2 (antibody)
heavy: not shown
light: DIQMTQSPSSVSASVGDRVTITCRASQGIYSWLAWYQQKPGKAPNLLIYTASTLQSGVPSRFSGSGSGTDFTLTISSLQPEDFATYYCQQANIFPLTFGGGTKVEIKRTVAAPSVFIFPPSDEQLKSGTASVVCLLNNFYPREAKVQWKVDNALQSGNSQESVTEQDSKDSTYSLSSTLTLSKADYEKHKVYACEVTHQGLSSPVTKSFNRGEC
notes: also called 383-G1m2
B2: 383-huIgG1m27 (antibody)
heavy: not shown
light: B1 light
B3: 383-huIgG1m45 (antibody)
heavy: not shown
light: B1 light
B4: 383-huIgG1m47 (antibody)
heavy: not shown
light: B1 light
B5: 383-huIgG1m240 (antibody)
heavy: not shown
light: B1 light
B6: 383-huIgG2m19 (antibody)
heavy: not shown
light: B1 light
B7: 383-huIgG2m1 (antibody)
heavy: not shown
light: B1 light
B8: 383-huIgG2m20 (antibody)
heavy: not shown
light: B1 light
notes: also called 383-G2m20; 383-IghuG2m20
B9: 383-huIgG2m2040 (antibody)
heavy: not shown
light: B1 light
B10: 383-huIgG4m2 (antibody)
heavy: not shown
light: B1 light
B11: 383-huIgG4mAA (antibody)
heavy: not shown
light: B1 light
B12: 383-huIgG4SP (antibody)
heavy chain: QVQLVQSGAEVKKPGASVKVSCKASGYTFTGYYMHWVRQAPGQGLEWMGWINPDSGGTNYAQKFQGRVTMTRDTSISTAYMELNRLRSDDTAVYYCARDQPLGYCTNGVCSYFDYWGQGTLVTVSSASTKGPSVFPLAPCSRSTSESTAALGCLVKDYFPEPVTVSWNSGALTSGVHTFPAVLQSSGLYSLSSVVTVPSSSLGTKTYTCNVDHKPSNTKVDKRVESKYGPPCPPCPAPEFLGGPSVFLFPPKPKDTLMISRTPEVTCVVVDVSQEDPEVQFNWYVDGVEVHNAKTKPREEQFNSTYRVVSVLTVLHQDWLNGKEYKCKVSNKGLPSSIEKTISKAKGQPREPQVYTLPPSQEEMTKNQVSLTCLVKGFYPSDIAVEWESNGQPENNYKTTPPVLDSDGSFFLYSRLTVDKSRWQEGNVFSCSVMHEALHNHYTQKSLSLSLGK
light chain: B1 light
notes: anti-CD40 antibody 383 on a human IgG4 S228P constant region
B13: 383-huIgG4m40 (antibody)
heavy: not shown
light: B1 light
B14: 383-huIgG4m41 (antibody)
heavy: not shown
light: B1 light
B15: 383-huIgG4m42 (antibody)
heavy: not shown
light: B1 light
B16: 383-huIgG4m46 (antibody)
heavy: not shown
light: B1 light
B17: 383-huIgG4mPE (antibody)
heavy: not shown
light: B1 light
B18: 383-huIgG1 (antibody)
heavy chain: not shown
light chain: B1 light
notes: anti-CD40 antibody 383 on a wild-type human IgG1 constant region
B19: 383-huIgG1 N297A (antibody)
heavy: not shown
light: B1 light
notes: the entry already carries the change
B20: 383-huIgG1m40 (antibody)
heavy: not shown
light: B1 light
B21: 383-huIgG1m48 (antibody)
heavy: not shown
light: B1 light
B22: 383-huIgG1m49 (antibody)
heavy: not shown
light: B1 light
B23: 383-huIgG1m50 (antibody)
heavy: not shown
light: B1 light
B24: 383-huIgG1mAA (antibody)
heavy: not shown
light: B1 light
B25: 383-huIgG1mAAG (antibody)
heavy: not shown
light: B1 light
notes: Anti-CD40 antibody 383 with Fc variant G1mAAG; also called G1mAG
B26: 383-huIgG2m44 (antibody)
heavy: not shown
light: B1 light
B27: 383-huIgG2G4 (antibody)
heavy: not shown
light: B1 light
B28: 383-huIgG2m40 (antibody)
heavy: not shown
light: B1 light
notes: also called 383-G2m40; 383-IghuG2m40
B29: 383-huIgG2m43 (antibody)
heavy: not shown
light: B1 light
B30: 383-huIgG2mAA (antibody)
heavy: not shown
light: B1 light
B31: 383-huIgG4m20 (antibody)
heavy: not shown
light: B1 light
B32: 383-huIgG4m30 (antibody)
heavy: not shown
light: B1 light

Assays:
[1] = target: T1, human FcγRIIB; assay: FACS on CHO cells expressing human FcγRIIB (MFI)
Procedure: (§1) For FACS analysis of the IgG mutants' binding to different FcγRs, FcγR overexpressing CHO cells were harvested using trypsin-EDTA and were suspended in cold staining buffer (3% BSA in PBS). Test IgG mutants, which were diluted in staining buffer, were added into the cells. The mixture was incubated at 4° C. for 2 hours, and then washed twice with cold staining buffer and re-suspended in PE-labeled anti-human IgG followed by incubation at 4° C. for 2 hours. The mixture was washed twice with staining buffer and re-suspended in 2% PFA in PBS for FACS.

[2] = target: T2, human FcγRI (human, UniProt P12314 16-374); assay: FACS on CHO cells expressing human FcγRI (MFI)
T2 construct: whole, on cells; also called CD64
T2 sequence (P12314 16-374): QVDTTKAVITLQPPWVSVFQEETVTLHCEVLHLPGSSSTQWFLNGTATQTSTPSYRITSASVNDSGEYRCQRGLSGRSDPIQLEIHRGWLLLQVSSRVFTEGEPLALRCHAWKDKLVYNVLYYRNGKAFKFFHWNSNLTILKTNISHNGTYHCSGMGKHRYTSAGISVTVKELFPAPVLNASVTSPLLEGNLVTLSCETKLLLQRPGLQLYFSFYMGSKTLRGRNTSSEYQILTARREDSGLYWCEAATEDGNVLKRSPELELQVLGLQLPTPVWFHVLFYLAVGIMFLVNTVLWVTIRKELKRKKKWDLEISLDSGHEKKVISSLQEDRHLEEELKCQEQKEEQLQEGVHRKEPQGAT
Procedure: as §1

[3] = target: T3, human FcγRIII (human, UniProt P08637 17-254); assay: FACS on CHO cells expressing human FcγRIIIA (MFI)
T3 construct: whole, on cells; also called FcγRIIIA; CD16a
T3 sequence (P08637 17-254): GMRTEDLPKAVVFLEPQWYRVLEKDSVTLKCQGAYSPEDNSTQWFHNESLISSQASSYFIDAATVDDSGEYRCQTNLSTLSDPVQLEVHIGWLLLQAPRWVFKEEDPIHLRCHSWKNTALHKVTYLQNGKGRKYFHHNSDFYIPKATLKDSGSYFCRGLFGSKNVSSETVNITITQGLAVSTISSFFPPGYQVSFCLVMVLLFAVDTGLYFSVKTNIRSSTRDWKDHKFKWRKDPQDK
Procedure: as §1

Row | Binder | binding result [1] | binding result [2] | binding result [3]
1 | B1 | binds | – | –
2 | B2 | binds | – | –
3 | B3 | binds | no binding (tested: 30 µg/mL) | –
4 | B4 | binds | no binding (tested: 30 µg/mL) | –
5 | B5 | – | no binding (tested: 30 µg/mL) | –
6 | B6 | binds | no binding (tested: 30 µg/mL) | no binding (tested: 30 µg/mL)
7 | B7 | no binding (tested: 30 µg/mL) | no binding (tested: 30 µg/mL) | no binding (tested: 30 µg/mL)
8 | B8 | binds | no binding (tested: 30 µg/mL) | no binding (tested: 30 µg/mL)
9 | B9 | – | no binding (tested: 30 µg/mL) | no binding (tested: 30 µg/mL)
10 | B10 | binds | – | no binding (tested: 30 µg/mL)
11 | B11 | binds | binds | –
12 | B12 | binds | binds | no binding (tested: 30 µg/mL)
13 | B13 | no binding (tested: 30 µg/mL) | – | no binding (tested: 30 µg/mL)
14 | B14 | no binding (tested: 30 µg/mL) | no binding (tested: 30 µg/mL) | no binding (tested: 30 µg/mL)
15 | B15 | no binding (tested: 30 µg/mL) | no binding (tested: 30 µg/mL) | no binding (tested: 30 µg/mL)
16 | B16 | binds | – | no binding (tested: 30 µg/mL)

Row | Binder | binding result [1] | binding result [2] | binding result [3]
17 | B17 | binds | binds | –
18 | B18 | binds | binds | –
19 | B19 | binds | binds | no binding (tested: 30 µg/mL)
20 | B20 | no binding (tested: 30 µg/mL) | no binding (tested: 30 µg/mL) | no binding (tested: 30 µg/mL)
21 | B21 | binds | binds | no binding (tested: 30 µg/mL)
22 | B22 | binds | binds | –
23 | B23 | binds | binds | –
24 | B24 | no binding (tested: 30 µg/mL) | no binding (tested: 30 µg/mL) | no binding (tested: 30 µg/mL)
25 | B25 | no binding (tested: 30 µg/mL) | – | no binding (tested: 30 µg/mL)
26 | B26 | binds | no binding (tested: 30 µg/mL) | no binding (tested: 30 µg/mL)
27 | B27 | binds | no binding (tested: 30 µg/mL) | no binding (tested: 30 µg/mL)
28 | B28 | no binding (tested: 30 µg/mL) | no binding (tested: 30 µg/mL) | no binding (tested: 30 µg/mL)
29 | B29 | – | no binding (tested: 30 µg/mL) | no binding (tested: 30 µg/mL)
30 | B30 | binds | no binding (tested: 30 µg/mL) | no binding (tested: 30 µg/mL)
31 | B31 | no binding (tested: 30 µg/mL) | no binding (tested: 30 µg/mL) | no binding (tested: 30 µg/mL)
32 | B32 | – | no binding (tested: 30 µg/mL) | no binding (tested: 30 µg/mL)
